Key:
[1] = molecular target: T1, human PrimPol (wild-type, full-length) (Homo sapiens, UniProt Q96LW4); assay: gel-based single nucleotide primer extension; assay type: biochemical; conditions: 200 uM dNTP
T1 construct: full length (560 residues), E. coli BL21(pLysS), Ni-NTA, heparin and gel filtration
T1 sequence (Q96LW4 1-560): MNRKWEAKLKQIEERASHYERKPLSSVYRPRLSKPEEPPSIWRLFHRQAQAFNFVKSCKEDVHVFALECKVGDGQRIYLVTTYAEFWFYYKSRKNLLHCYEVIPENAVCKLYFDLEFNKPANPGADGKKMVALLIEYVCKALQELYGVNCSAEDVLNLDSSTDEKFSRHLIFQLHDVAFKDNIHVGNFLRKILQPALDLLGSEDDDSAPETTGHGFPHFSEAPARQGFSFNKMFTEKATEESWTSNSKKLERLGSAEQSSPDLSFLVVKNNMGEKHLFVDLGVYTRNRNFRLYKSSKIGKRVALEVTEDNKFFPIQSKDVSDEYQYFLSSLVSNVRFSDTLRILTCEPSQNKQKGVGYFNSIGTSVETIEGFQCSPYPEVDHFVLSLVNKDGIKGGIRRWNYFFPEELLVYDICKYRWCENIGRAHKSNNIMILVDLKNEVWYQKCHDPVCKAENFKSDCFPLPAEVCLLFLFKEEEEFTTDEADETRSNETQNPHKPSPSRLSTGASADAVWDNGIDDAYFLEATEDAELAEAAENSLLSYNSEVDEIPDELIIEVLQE

[2] = molecular target: T2, PrimPol1–354 (Homo sapiens, UniProt Q96LW4); assay: gel-based single nucleotide primer extension; assay type: biochemical; conditions: opposite templating cytosines; 200 uM dNTP, 10 mM MgCl2, pH 7.0
T2 construct: gene PRIMPOL; AEP polymerase domain, residues 1-354, lacks zinc finger; E. coli, Ni-NTA
T2 sequence (Q96LW4 1-354): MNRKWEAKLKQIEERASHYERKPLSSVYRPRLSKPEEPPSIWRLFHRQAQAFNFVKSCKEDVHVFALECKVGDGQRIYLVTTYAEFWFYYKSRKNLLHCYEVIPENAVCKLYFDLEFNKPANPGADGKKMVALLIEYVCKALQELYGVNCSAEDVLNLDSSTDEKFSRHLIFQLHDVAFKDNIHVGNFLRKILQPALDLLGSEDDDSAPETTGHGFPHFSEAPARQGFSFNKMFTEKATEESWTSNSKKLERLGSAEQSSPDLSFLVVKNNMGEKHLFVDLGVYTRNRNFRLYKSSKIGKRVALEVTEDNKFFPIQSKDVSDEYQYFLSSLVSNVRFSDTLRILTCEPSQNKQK

[3] = molecular target: T3, PrimPol372-560 (zinc finger domain) (Homo sapiens, UniProt Q96LW4 372-560); assay: EMSA; 10 mM Mg2+; 40 nM DNA; protein 0.05-20 uM; 10 mM Bis-Tris-Propane-HCl pH 7.0, 10 mM MgCl2, 1 mM DTT, 40 nM DNA, 25°C, 60 min; 5% polyacrylamide gel in 0.5x TBE; conditions: protein: recombinant; tags: His (Ni-NTA purified); label: 5'-Hex
T3 sequence: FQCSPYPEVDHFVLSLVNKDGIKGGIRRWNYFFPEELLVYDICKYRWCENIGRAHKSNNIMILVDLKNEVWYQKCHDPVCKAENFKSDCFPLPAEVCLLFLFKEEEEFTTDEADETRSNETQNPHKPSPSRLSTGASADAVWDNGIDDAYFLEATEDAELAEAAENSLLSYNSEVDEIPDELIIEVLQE

[4] = molecular target: T4, PrimPol1-354 (AEP polymerase domain) (Homo sapiens, UniProt Q96LW4 1-354); assay: EMSA; 10 mM Mg2+; 40 nM DNA; shift evident at ~0.5 uM protein, complete at 5 uM; 10 mM Bis-Tris-Propane-HCl pH 7.0, 10 mM MgCl2, 1 mM DTT, 40 nM DNA, 25°C, 60 min; 5% polyacrylamide gel in 0.5x TBE; conditions: protein: recombinant, tags: His (Ni-NTA purified)
T4 sequence: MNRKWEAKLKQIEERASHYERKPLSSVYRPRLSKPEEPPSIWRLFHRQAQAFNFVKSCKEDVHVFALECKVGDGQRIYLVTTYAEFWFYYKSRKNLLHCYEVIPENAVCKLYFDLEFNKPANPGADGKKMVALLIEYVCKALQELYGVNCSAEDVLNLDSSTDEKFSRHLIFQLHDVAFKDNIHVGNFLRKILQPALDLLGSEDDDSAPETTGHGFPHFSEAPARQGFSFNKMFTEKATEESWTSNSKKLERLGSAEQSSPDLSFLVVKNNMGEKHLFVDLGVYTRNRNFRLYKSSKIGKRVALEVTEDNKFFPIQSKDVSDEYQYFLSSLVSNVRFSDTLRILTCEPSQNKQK

[5] = molecular target: T3, PrimPol372-560 (zinc finger domain); assay: EMSA; 10 mM Mg2+; 40 nM DNA; no shift, protein 0.05-20 uM; 10 mM Bis-Tris-Propane-HCl pH 7.0, 10 mM MgCl2, 1 mM DTT, 40 nM DNA, 25°C, 60 min; 5% polyacrylamide gel in 0.5x TBE; conditions: protein: recombinant; tags: His (Ni-NTA purified); label: 5'-Hex on strand 1; blunt

With `Nc1ncnc2c1ncn2[C@H]1C[C@H](O)[C@@H](COP(=O)(O)OP(=O)(O)OP(=O)(O)O)O1` [dATP] the “gel-based single nucleotide primer extension” value ([1]; template-independent extension, 10 mM MgCl2, 1 mM MnCl2, pH 7.0, 37 °C) was “promiscuous DNA synthesis was most efficient when enzyme was utilising dATP or dTTP”.

For `Nc1nc2c(ncn2[C@H]2C[C@H](O)[C@@H](COP(=O)(O)OP(=O)(O)OP(=O)(O)O)O2)c(=O)[nH]1` [dGTP], the “gel-based single nucleotide primer extension” value ([1]; opposite templating cytosines, 10 mM MgCl2, pH 7.0) was “all incorporated two correct incoming guanine nucleotides opposite the templating cytosines” and the “gel-based single nucleotide primer extension” value [2] was “All four of these PrimPol constructs inserted two guanine nucleotides opposite two cytosines”.

TGTCGTCTGTTCGGTCGTTCGGTCTTCAAGGCTGTTGTGCGCCCTGCGCG (ssDNA) [HP-50 ssDNA (sequence 7)]: binds [3]; binds ([4]; label: 5'-Hex).

B1: HP-50/ND-50 dsDNA (sequence 6 annealed to 7) (dsDNA)
DNA 1: TGTCGTCTGTTCGGTCGTTCGGTCTTCAAGGCTGTTGTGCGCCCTGCGCG
DNA 2: CGCGCAGGGCGCACAACAGCCTTGAAGACCGAACGACCGAACAGACGACA
B1: binds ([4]; label: 5'-Hex on strand 1, blunt); no binding [5].

From publication PMC4027207, “Molecular dissection of the domain architecture and catalytic activities of human PrimPol” (Nucleic Acids Research, 2014)
